Here are results for 1 molecule from patent publication US20240116985A1, “STAPLED PEPTIDES AND METHODS THEREOF” (priority 2020, published 2024).

“And” between values parts separate entries of the source, which are not always exact repeats. Equal values may be shown once. Starred links: 1 amine or outer side, 2 acyl side, 3 side chain; linkers in the order of their positions; H or OH if unused. Positions of bridges follow the written chain, without caps; N, C: chain ends. Non-standard residues stand in square brackets, D forms with d. PyrS2 = (S)-3-amino-1-((pent-4-en-1-yloxy)carbonyl)pyrrolidine-3-carboxylic acid, C=CCCCOC(=O)N1CC[C@@](N[*:1])(C(=O)[*:2])C1; B5 = 2-amino-2-(pent-4-en-1-yl)hept-6-enoic acid, C=CCCCC(CCCC=C)(N[*:1])C(=O)[*:2]; Bta = N[C@@H](Cc1csc2ccccc12)C(=O)O; αAllylPro = C=CC[C@@]1(C(=O)O)CCCN1; tBuAla = CC(C)(C)C[C@H](N)C(=O)O; 3Thi = N[C@@H](Cc1ccsc1)C(=O)O

The target of experiment [1] is beta-catenin-Halo NanoBRET construct (Homo sapiens (Human)) (UniProt P35222). Kind of experiment: NanoBRET, Bcat-Halo/TCF4-Luc in HEK293 cells; peptide 10 uM; replicate 2; competitor TCF4-Luc. On the technique in general: BRET reads energy transfer from a luciferase to a nearby fluorophore.
Sequence of beta-catenin-Halo NanoBRET construct (Homo sapiens (Human)) (P35222 whole entry): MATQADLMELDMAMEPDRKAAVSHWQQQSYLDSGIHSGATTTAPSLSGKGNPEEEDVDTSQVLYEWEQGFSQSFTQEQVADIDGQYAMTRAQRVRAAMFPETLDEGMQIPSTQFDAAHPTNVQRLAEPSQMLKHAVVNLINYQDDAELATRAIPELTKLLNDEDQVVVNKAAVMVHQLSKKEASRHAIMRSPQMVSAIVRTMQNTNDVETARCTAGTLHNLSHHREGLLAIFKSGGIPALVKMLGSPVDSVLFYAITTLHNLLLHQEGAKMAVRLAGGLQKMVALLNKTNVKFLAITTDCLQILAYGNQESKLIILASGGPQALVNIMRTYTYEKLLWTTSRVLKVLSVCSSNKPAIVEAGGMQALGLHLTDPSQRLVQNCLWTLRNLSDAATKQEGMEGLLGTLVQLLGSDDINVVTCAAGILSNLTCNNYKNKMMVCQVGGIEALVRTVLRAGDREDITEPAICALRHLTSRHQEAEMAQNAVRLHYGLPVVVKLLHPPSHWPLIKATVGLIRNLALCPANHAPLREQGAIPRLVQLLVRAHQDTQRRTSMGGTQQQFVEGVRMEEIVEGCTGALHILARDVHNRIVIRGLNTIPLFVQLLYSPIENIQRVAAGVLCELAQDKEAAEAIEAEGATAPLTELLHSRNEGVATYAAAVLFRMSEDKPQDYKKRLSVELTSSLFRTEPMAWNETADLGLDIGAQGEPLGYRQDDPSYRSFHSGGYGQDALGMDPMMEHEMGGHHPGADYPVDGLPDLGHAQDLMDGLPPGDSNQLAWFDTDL
For experiment [2] the target is unchanged. Kind of experiment: NanoBRET, Bcat-Halo/TCF4-Luc in HEK293 cells; peptide 2.5 uM; replicate 2; competitor TCF4-Luc.
The target is the same in experiment [3]. Put plainly: NanoBRET, Bcat-Halo/TCF4-Luc in HEK293 cells; peptide 2.5 uM; replicate 3; competitor TCF4-Luc.
Experiment [4] has the same target. Put plainly: NanoBRET, Bcat-Halo/TCF4-Luc in HEK293 cells; peptide 1.25 uM; replicate 2; competitor TCF4-Luc.
Experiment [5] has the same target. Put plainly: NanoBRET, Bcat-Halo/TCF4-Luc in HEK293 cells; peptide 1.25 uM; replicate 3; competitor TCF4-Luc.
Experiment [6] shares this target. Kind of experiment: NanoBRET, Bcat-Halo/TCF4-Luc in HEK293 cells; peptide 0.625 uM; replicate 2; competitor TCF4-Luc.
Experiment [7] has as its target beta-catenin-Halo (NanoBRET construct expressed in HEK293 cells) (Homo sapiens (Human)) (UniProt P35222). Kind of experiment: NanoBRET, HEK293 cells with Bcat-Halo and TCF4-Luc; plate row D (5 uM by plate map), plate column 5.
The target is the same in experiment [8]. Kind of experiment: NanoBRET, HEK293 cells with Bcat-Halo and TCF4-Luc; plate row D (5 uM by plate map), plate column 7.
For experiment [9] the target is unchanged. Kind of experiment: NanoBRET, HEK293 cells with Bcat-Halo and TCF4-Luc; plate row B (20 uM by plate map), plate column 5.
Experiment [10] shares this target. Kind of experiment: NanoBRET, HEK293 cells with Bcat-Halo and TCF4-Luc; plate row B (20 uM by plate map), plate column 6.
Experiment [11] has the same target. Kind of experiment: NanoBRET, HEK293 cells with Bcat-Halo and TCF4-Luc; plate row B (20 uM by plate map), plate column 7.
Experiment [12] has the same target. Kind of experiment: NanoBRET, HEK293 cells with Bcat-Halo and TCF4-Luc; plate row C (10 uM by plate map), plate column 7.
For experiment [13] the target is unchanged. Kind of experiment: NanoBRET, HEK293 cells with Bcat-Halo and TCF4-Luc; plate row E (2.5 uM by plate map), plate column 6.
For experiment [14] the target is unchanged. Kind of experiment: NanoBRET, HEK293 cells with Bcat-Halo and TCF4-Luc; plate row F (1.25 uM by plate map), plate column 5.
Experiment [15] has the same target. Kind of experiment: NanoBRET, HEK293 cells with Bcat-Halo and TCF4-Luc; plate row F (1.25 uM by plate map), plate column 6.
Experiment [16] shares this target. Put plainly: NanoBRET, HEK293 cells with Bcat-Halo and TCF4-Luc; plate row F (1.25 uM by plate map), plate column 7.
The target is the same in experiment [17]. Put plainly: NanoBRET, HEK293 cells with Bcat-Halo and TCF4-Luc; plate row G (0.625 uM by plate map), plate column 5.
The target is the same in experiment [18]. Kind of experiment: NanoBRET, HEK293 cells with Bcat-Halo and TCF4-Luc; plate row G (0.625 uM by plate map), plate column 6.
For experiment [19] the target is unchanged. Put plainly: NanoBRET, HEK293 cells with Bcat-Halo and TCF4-Luc; plate row G (0.625 uM by plate map), plate column 7.
The target in experiment [20] is beta-catenin-Halo NanoBRET construct (Homo sapiens (Human)) (UniProt P35222). Put plainly: NanoBRET raw acceptor reading, Bcat-Halo/TCF4-Luc in HEK293 cells; plate row D (5 uM by plate map); competitor TCF4-Luc.
The target is the same in experiment [21]. Kind of experiment: NanoBRET raw acceptor reading, Bcat-Halo/TCF4-Luc in HEK293 cells; plate row E (2.5 uM by plate map); competitor TCF4-Luc.
Experiment [22] has the same target. Put plainly: NanoBRET raw acceptor reading, Bcat-Halo/TCF4-Luc in HEK293 cells; plate row F (1.25 uM by plate map); competitor TCF4-Luc.
For experiment [23] the target is unchanged. Put plainly: NanoBRET raw acceptor reading, Bcat-Halo/TCF4-Luc in HEK293 cells; plate row G (0.625 uM by plate map); competitor TCF4-Luc.
Experiment [24] deals with full-length beta-Catenin (Uniprot ID P35222) (Homo sapiens (Human)) (UniProt P35222). Put plainly: fluorescence polarization competition: peptide titrated against 10 nM full-length beta-catenin + 10 nM 5FAM-TCF4(10-53) probe. On the technique in general: In fluorescence polarisation assays a small probe gives low polarisation when free and higher when bound to something large.
Sequence of full-length beta-Catenin (Uniprot ID P35222) (Homo sapiens (Human)) (P35222 2-781 limits assumed): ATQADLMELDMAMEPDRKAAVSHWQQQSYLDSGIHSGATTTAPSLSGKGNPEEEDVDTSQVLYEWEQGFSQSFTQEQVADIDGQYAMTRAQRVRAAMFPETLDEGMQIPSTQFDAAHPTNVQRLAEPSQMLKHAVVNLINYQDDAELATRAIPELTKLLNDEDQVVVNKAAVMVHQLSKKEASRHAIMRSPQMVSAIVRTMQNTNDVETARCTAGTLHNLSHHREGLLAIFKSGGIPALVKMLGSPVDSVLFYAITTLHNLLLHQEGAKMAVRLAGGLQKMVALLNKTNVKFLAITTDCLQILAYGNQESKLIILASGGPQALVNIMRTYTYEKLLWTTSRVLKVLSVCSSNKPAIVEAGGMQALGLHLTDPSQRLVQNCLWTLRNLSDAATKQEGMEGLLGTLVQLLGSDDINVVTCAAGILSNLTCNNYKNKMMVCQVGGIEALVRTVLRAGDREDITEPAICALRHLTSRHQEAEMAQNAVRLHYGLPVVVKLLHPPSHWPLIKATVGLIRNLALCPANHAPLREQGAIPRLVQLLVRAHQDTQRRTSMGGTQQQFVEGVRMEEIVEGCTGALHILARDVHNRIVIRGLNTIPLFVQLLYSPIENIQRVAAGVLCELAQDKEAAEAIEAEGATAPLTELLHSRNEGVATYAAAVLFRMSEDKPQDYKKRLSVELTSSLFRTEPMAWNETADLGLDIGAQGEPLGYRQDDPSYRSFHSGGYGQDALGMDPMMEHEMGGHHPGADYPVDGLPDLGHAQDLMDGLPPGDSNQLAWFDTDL

Sequence of beta-catenin-Halo (NanoBRET construct expressed in HEK293 cells) (Homo sapiens (Human)) (P35222 whole entry): as the sequence (P35222 whole entry) above

For orientation: % Inhibition means the drop in the measured response relative to a control, in per cent. The term EC50 denotes the midpoint of the concentration-response curve. As for Ac-[αAllylPro]F[tBuAla][B5]DDAADN[PyrS2][3Thi][Bta]Q-NH2 (staple 1-4, 4-11) [I-797], the % Inhibition was -21.9% in experiment [1]; 26.5% in experiment [2]; -11.7% in [3]; -1.1% in experiment [4]; -4% in experiment [5]; -6.9% in [6]. The NanoBRET donor emission 450 BP (raw reading) is 38800 in [7]; 47500 in experiment [8]; 58500 in [9]; 55900 in experiment [10]; 48000 in [11]; 40400 in experiment [12]. The NanoBRET donor emission 450 BP (raw reading) was determined as 22700 in experiment [13]; 21800 in experiment [14]; 34500 in [15]; 71100 in experiment [16]; 25200 in experiment [17]; 35700 in experiment [18]. The same molecule had a NanoBRET donor emission 450 BP (raw reading) in experiment [19] of 47600. The Acceptor 600 LP emission in [20] is 510 and 420 and 630; in [21] it was 460 and 220 and 510; in experiment [22], 300 and 410 and 860; in experiment [23], 410 and 440 and 530. Further, the EC50 in experiment [24] was 10 µM.
